Common to all, as to test: SPOT array
The target in assay [1] is T1, Boi2 SH3 (BOI2_YEAST), P39969.
T1 chain: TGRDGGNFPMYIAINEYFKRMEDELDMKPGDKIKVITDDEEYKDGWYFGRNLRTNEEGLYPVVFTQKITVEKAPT

Assay [2] deals with T2, Yfr024 SH3 (LSB3_YEAST), P43603.
T2 chain: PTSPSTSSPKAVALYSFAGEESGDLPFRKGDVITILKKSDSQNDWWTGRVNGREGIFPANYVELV

For assay [3], the target named is T3, Rvs167 SH3 (RV167_YEAST), P39743.
T3 chain: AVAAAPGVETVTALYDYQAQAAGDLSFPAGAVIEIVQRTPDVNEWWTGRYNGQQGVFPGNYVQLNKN

For assay [4], the target named is T4, Yhr016c SH3 (YSC84_YEAST), P32793.
T4 chain: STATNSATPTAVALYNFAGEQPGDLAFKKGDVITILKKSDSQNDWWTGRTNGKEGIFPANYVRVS

For assay [5], the target named is T5, Boi1 SH3 (BOI1_YEAST), P38041.
T5 chain: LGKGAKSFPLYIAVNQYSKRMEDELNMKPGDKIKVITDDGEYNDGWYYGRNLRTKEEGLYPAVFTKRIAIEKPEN

In the case of TDSPQLPSKDKSQE [YDL197C 472-485], the normalised SPOT signal, Boehringer light units (BLU); mean over the file's lines of this peptide is -0 in assay [1]; 4380 in assay [2]; 95.6 in assay [3]; 95.8 in assay [4]; 116 in assay [5].
In the case of TAAPATPPRHISNN [YPR040W 50-63], the normalised SPOT signal, Boehringer light units (BLU); mean over the file's lines of this peptide in assay [1] came to 41.4; in assay [2], 30400; in assay [3], 13200; in assay [4] it was 58900; in assay [5] it was 275.
Regarding STSPPRPKRIVVAI [YDR538W 48-61], the normalised SPOT signal, Boehringer light units (BLU); mean over the file's lines of this peptide in assay [1] came to 79.7; in assay [2], 3980; in assay [3], 182; in assay [4], 1340; in assay [5] it was 356.
With TDLPVNPPRDDKEW [YNR021W 264-277], the normalised SPOT signal, Boehringer light units (BLU); mean over the file's lines of this peptide was found to be 46.1 in assay [1]; 94.9 in assay [2]; 56.5 in assay [3]; 119 in assay [4]; 88.1 in assay [5].
Consider TDPPPQPRRLSDIV [YPR115W 471-484], for which the normalised SPOT signal, Boehringer light units (BLU); mean over the file's lines of this peptide was 36 in assay [1]; 5490 in assay [2]; 122 in assay [3]; 1780 in assay [4]; 69.1 in assay [5].
Consider SSYPMNPPKISFMQ [YGR133W 86-99], for which the normalised SPOT signal, Boehringer light units (BLU); mean over the file's lines of this peptide in assay [1] came to 111; in assay [2], 440; in assay [3] it was 65.4; in assay [4], 215; in assay [5], 17.1.
On to SSRPTSPVRKARST [YER173W 28-41], for which the normalised SPOT signal, Boehringer light units (BLU); mean over the file's lines of this peptide in assay [1] stood at 73.1; in assay [2] it was 1780; in assay [3], 98.3; in assay [4] it was 317; in assay [5] it was 368.
Consider SSRPMPPIRGPKRR [YLR147C 88-101], for which the normalised SPOT signal, Boehringer light units (BLU); mean over the file's lines of this peptide in assay [1] stood at 376; in assay [2], 11600; in assay [3], 771; in assay [4], 1900; in assay [5], 1100.
In the case of TDYPFKPPKISFTT [YBR082C 59-72], the normalised SPOT signal, Boehringer light units (BLU); mean over the file's lines of this peptide was 89.1 in assay [1]; 374 in assay [2]; 43.3 in assay [3]; 116 in assay [4]; 54.7 in assay [5].
Consider SVLPQTPLKDVMGG [YOR326W 1092-1105], for which the normalised SPOT signal, Boehringer light units (BLU); mean over the file's lines of this peptide in assay [1] is 10.3; in assay [2], 179; in assay [3], 44.5; in assay [4], 127; in assay [5] it was 100.
With TATPSSPKRMHSSI [YNL321W 116-129], the normalised SPOT signal, Boehringer light units (BLU); mean over the file's lines of this peptide is 36.1 in assay [1]; 534 in assay [2]; 81.7 in assay [3]; 244 in assay [4]; 50.9 in assay [5].
STSPKLPPRGKQRE [YPL249C 293-306]: the normalised SPOT signal, Boehringer light units (BLU); mean over the file's lines of this peptide in assay [1] worked out at 90.9; in assay [2] it was 20400; in assay [3] it was 57900; in assay [4] it was 72500; in assay [5], 5220.
Regarding TDGPIDPFKEPKTS [YPR018W 481-494], the normalised SPOT signal, Boehringer light units (BLU); mean over the file's lines of this peptide in assay [1] was 58.5; in assay [2] it was 0; in assay [3], 33.8; in assay [4] it was 0; in assay [5] it was 136.
Regarding TDYPFKPPKVNFTT [YDR059C 59-72], the normalised SPOT signal, Boehringer light units (BLU); mean over the file's lines of this peptide was 65.8 in assay [1]; 570 in assay [2]; 93.6 in assay [3]; 232 in assay [4]; 58.8 in assay [5].
Consider SSTPIVPNRLKTVL [YHR164C 158-171], for which the normalised SPOT signal, Boehringer light units (BLU); mean over the file's lines of this peptide in assay [1] worked out at 10.8; in assay [2] it was 6570; in assay [3] it was 1490; in assay [4], 1960; in assay [5], 56.2.
For STRPQMPSRTRETA [YJR090C 50-63], the normalised SPOT signal, Boehringer light units (BLU); mean over the file's lines of this peptide in assay [1] turned out to be 43.5; in assay [2] it was 4030; in assay [3], 74.7; in assay [4], 37.5; in assay [5], 311.
Regarding SSSPFIPKKRKPRS [YLR430W 2218-2231], the normalised SPOT signal, Boehringer light units (BLU); mean over the file's lines of this peptide was 92 in assay [1]; 1970 in assay [2]; 42.9 in assay [3]; 258 in assay [4]; 76.5 in assay [5].
With SSTPTTPERPKRKS [YHR182W 758-771], the normalised SPOT signal, Boehringer light units (BLU); mean over the file's lines of this peptide came out at 36.8 in assay [1]; 58100 in assay [2]; 579 in assay [3]; 31700 in assay [4]; 818 in assay [5].
Take STPPTLPPRRIEDP [YMR192W 200-213]: the normalised SPOT signal, Boehringer light units (BLU); mean over the file's lines of this peptide in assay [1] came to 44.5; in assay [2], 27500; in assay [3] it was 24400; in assay [4], 49300; in assay [5], 194.

The values are drawn from PMC314469, “Protein Interaction Networks by Proteome Peptide Scanning” (PLoS Biology, 2004).
